Results reported in the supplement of paper PMC5998384.

Assays:
HeLa Kyoto [1] = assay: solubility in G1/S (NP-40 vs SDS abundance) (log2 ratio); higher = more soluble; conditions: cell cycle stage: G1/S
HeLa Kyoto [2] = assay: melting temperature (median over replicates), in situ; higher = more thermally stable
HeLa Kyoto [3] = assay: thermal stability score vs G1/S (z-score of summed log2 fold changes over temperatures); higher = more thermally stable than in G1/S
HeLa Kyoto [4] = assay: solubility change mitosis vs G1/S (difference of NP-40 vs SDS log2 ratios) (log2 ratio difference); higher = more soluble in mitosis
[5] = cell cycle stage: early G1 (4.5 h after nocodazole release)
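For melting temperature (median over replicates), in situ in this document: HeLa Kyoto cells synchronized by double thymidine or nocodazole block, proteins quantified by TMT10plex mass spectrometry, three independent biological replicates.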
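For solubility change mitosis vs G1/S (difference of NP-40 vs SDS log2 ratios) in this document: synchronized HeLa Kyoto cells (double thymidine block for G1/S, nocodazole release for mitosis), protein amounts in NP-40 versus SDS lysates quantified by mass spectrometry, three biological replicates.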
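For solubility in G1/S (NP-40 vs SDS abundance) in this document: HeLa Kyoto cells arrested at G1/S by double thymidine block, proteins quantified by TMT10plex mass spectrometry in mild NP-40 versus SDS extracts, three biological replicates.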
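For thermal stability score vs G1/S (z-score of summed log2 fold changes over temperatures) in this document: synchronized HeLa Kyoto cells, proteins quantified by TMT10plex mass spectrometry, three biological replicates, mitosis taken 0.5 h after nocodazole release, G1/S directly after double thymidine block.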

Sequence | solubility in G1/S (log2) (HeLa Kyoto [1]) | melting temperature (HeLa Kyoto [2]; cell cycle stage: G1/S) [°C] | melting temperature (HeLa Kyoto [2]; cell cycle stage: mitosis) [°C] | thermal stability score (HeLa Kyoto [3]; [5]) | thermal stability score (HeLa Kyoto [3]; cell cycle stage: mitosis) | solubility change mitosis (log2) (HeLa Kyoto [4])
MLRRILQRTPGRVGSQGSDLDSSATPINTVDVNNESSSEGFICPQCMKSLGSADELFKHYEAVHDAGNDSGHGGESNLALKRDDVTLLRQEVQDLQASLKEEKWYSEELKKELEKYQGLQQQEAKPDGLVTDSSAELQSLEQQLEEAQTENFNIKQMKDLFEQKAAQLATEIADIKSKYDEERSLREAAEQKVTRLTEELNKEATVIQDLKTELLQRPGIEDVAVLKKELVQVQTLMDNMTLERERESEKLKDECKKLQSQYASSEATISQLRSELAKGPQEVAVYVQELQKLKSSVNELTQKNQTLTENLLKKEQDYTKLEEKHNEESVSKKNIQATLHQKDLDCQQLQSRLSASETSLHRIHVELSEKGEATQKLKEELSEVETKYQHLKAEFKQLQQQREEKEQHGLQLQSEINQLHSKLLETERQLGEAHGRLKEQRQLSSEKLMDKEQQVADLQLKLSRLEEQLKEKVTNSTELQHQLDKTKQQHQEQQALQQSTTAKLREAQNDLEQVLRQIGDKDQKIQNLEALLQKSKENISLLEKEREDLYAKIQAGEGETAVLNQLQEKNHTLQEQVTQLTEKLKNQSESHKQAQENLHDQVQEQKAHLRAAQDRVLSLETSVNELNSQLNESKEKVSQLDIQIKAKTELLLSAEAAKTAQRADLQNHLDTAQNALQDKQQELNKITTQLDQVTAKLQDKQEHCSQLESHLKEYKEKYLSLEQKTEELEGQIKKLEADSLEVKASKEQALQDLQQQRQLNTDLELRATELSKQLEMEKEIVSSTRLDLQKKSEALESIKQKLTKQEEEKKILKQDFETLSQETKIQHEELNNRIQTTVTELQKVKMEKEALMTELSTVKDKLSKVSDSLKNSKSEFEKENQKGKAAILDLEKTCKELKHQLQVQMENTLKEQKELKKSLEKEKEASHQLKLELNSMQEQLIQAQNTLKQNEKEEQQLQGNINELKQSSEQKKKQIEALQGELKIAVLQKTELENKLQQQLTQAAQELAAEKEKISVLQNNYEKSQETFKQLQSDFYGRESELLATRQDLKSVEEKLSLAQEDLISNRNQIGNQNKLIQELKTAKATLEQDSAKKEQQLQERCKALQDIQKEKSLKEKELVNEKSKLAEIEEIKCRQEKEITKLNEELKSHKLESIKEITNLKDAKQLLIQQKLELQGKADSLKAAVEQEKRNQQILKDQVKKEEEELKKEFIEKEAKLHSEIKEKEVGMKKHEENEAKLTMQITALNENLGTVKKEWQSSQRRVSELEKQTDDLRGEIAVLEATVQNNQDERRALLERCLKGEGEIEKLQTKVLELQRKLDNTTAAVQELGRENQSLQIKHTQALNRKWAEDNEVQNCMACGKGFSVTVRRHHCRQCGNIFCAECSAKNALTPSSKKPVRVCDACFNDLQG [EEA1] | 0.678 | 57.3 | 58 | -3.01 | -4.2 | 0.0149
MLRRRGSPGMGVHVGAALGALWFCLTGALEVQVPEDPVVALVGTDATLCCSFSPEPGFSLAQLNLIWQLTDTKQLVHSFAEGQDQGSAYANRTALFPDLLAQGNASLRLQRVRVADEGSFTCFVSIRDFGSAAVSLQVAAPYSKPSMTLEPNKDLRPGDTVTITCSSYQGYPEAEVFWQDGQGVPLTGNVTTSQMANEQGLFDVHSILRVVLGANGTYSCLVRNPVLQQDAHSSVTITPQRSPTGAVEVQVPEDPVVALVGTDATLRCSFSPEPGFSLAQLNLIWQLTDTKQLVHSFTEGRDQGSAYANRTALFPDLLAQGNASLRLQRVRVADEGSFTCFVSIRDFGSAAVSLQVAAPYSKPSMTLEPNKDLRPGDTVTITCSSYRGYPEAEVFWQDGQGVPLTGNVTTSQMANEQGLFDVHSVLRVVLGANGTYSCLVRNPVLQQDAHGSVTITGQPMTFPPEALWVTVGLSVCLIALLVALAFVCWRKIKQSCEEENAGAEDQDGEGEGSKTALQPLKHSDSKEDDGQEIA [CD276] | 0.244 | 59 | 57.1 | -2.08 | -3.76 | -0.0859
MLRSVWNFLKRHKKKCIFLGTVLGGVYILGKYGQKKIREIQEREAAEYIAQARRQYHFESNQRTCNMTVLSMLPTLREALMQQLNSESLTALLKNRPSNKLEIWEDLKIISFTRSTVAVYSTCMLVVLLRVQLNIIGGYIYLDNAAVGKNGTTILAPPDVQQQYLSSIQHLLGDGLTELITVIKQAVQKVLGSVSLKHSLSLLDLEQKLKEIRNLVEQHKSSSWINKDGSKPLLCHYMMPDEETPLAVQACGLSPRDITTIKLLNETRDMLESPDFSTVLNTCLNRGFSRLLDNMAEFFRPTEQDLQHGNSMNSLSSVSLPLAKIIPIVNGQIHSVCSETPSHFVQDLLTMEQVKDFAANVYEAFSTPQQLEK [PEX3] | 0.0923 | 50 | 49 | 0.401 | 0.184 | -0.208
MLRWLIGGGREPQGLAEKSPLQTIGEEQTQNPYTELLVLKAHHDIVRFLVQLDDYRFASAGDDGIVVVWNAQTGEKLLELNGHTQKITAIITFPSLESCEEKNQLILTASADRTVIVWDGDTTRQVQRISCFQSTVKCLTVLQRLDVWLSGGNDLCVWNRKLDLLCKTSHLSDTGISALVEIPKNCVVAAVGKELIIFRLVAPTEGSLEWDILEVKRLLDHQDNILSLINVNDLSFVTGSHVGELIIWDALDWTMQAYERNFWDPSPQLDTQQEIKLCQKSNDISIHHFTCDEENVFAAVGRGLYVYSLQMKRVIACQKTAHDSNVLHVARLPNRQLISCSEDGSVRIWELREKQQLAAEPVPTGFFNMWGFGRVSKQASQPVKKQQENATSCSLELIGDLIGHSSSVEMFLYFEDHGLVTCSADHLIILWKNGERESGLRSLRLFQKLEENGDLYLAV [WDR41] | 0.0666 | 52.8 | 53.4 | -1.29 | -1.46 | -0.21
MLSPQRVAAAASRGADDAMESSKPGPVQVVLVQKDQHSFELDEKALASILLQDHIRDLDVVVVSVAGAFRKGKSFILDFMLRYLYSQKESGHSNWLGDPEEPLTGFSWRGGSDPETTGIQIWSEVFTVEKPGGKKVAVVLMDTQGAFDSQSTVKDCATIFALSTMTSSVQIYNLSQNIQEDDLQQLQLFTEYGRLAMDEIFQKPFQTLMFLVRDWSFPYEYSYGLQGGMAFLDKRLQVKEHQHEEIQNVRNHIHSCFSDVTCFLLPHPGLQVATSPDFDGKLKDIAGEFKEQLQALIPYVLNPSKLMEKEINGSKVTCRGLLEYFKAYIKIYQGEDLPHPKSMLQATAEANNLAAAASAKDIYYNNMEEVCGGEKPYLSPDILEEKHCEFKQLALDHFKKTKKMGGKDFSFRYQQELEEEIKELYENFCKHNGSKNVFSTFRTPAVLFTGIVALYIASGLTGFIGLEVVAQLFNCMVGLLLIALLTWGYIRYSGQYRELGGAIDFGAAYVLEQASSHIGNSTQATVRDAVVGRPSMDKKAQ [ATL3] | -0.00471 | 52.2 | 51.7 | -0.0896 | 0.487 | -0.139
MLSRSRCVSRAFSRSLSAFQKGNCPLGRRSLPGVSLCQGPGYPNSRKVVINNSVFSVRFFRTTAVCKDDLVTVKTPAFAESVTEGDVRWEKAVGDTVAEDEVVCEIETDKTSVQVPSPANGVIEALLVPDGGKVEGGTPLFTLRKTGAAPAKAKPAEAPAAAAPKAEPTAAAVPPPAAPIPTQMPPVPSPSQPPSGKPVSAVKPTVAPPLAEPGAGKGLRSEHREKMNRMRQRIAQRLKEAQNTCAMLTTFNEIDMSNIQEMRARHKEAFLKKHNLKLGFMSAFVKASAFALQEQPVVNAVIDDTTKEVVYRDYIDISVAVATPRGLVVPVIRNVEAMNFADIERTITELGEKARKNELAIEDMDGGTFTISNGGVFGSLFGTPIINPPQSAILGMHGIFDRPVAIGGKVEVRPMMYVALTYDHRLIDGREAVTFLRKIKAAVEDPRVLLLDL [DLST] | 0.0922 | 61.7 | 65.9 | -2.5 | -3.04 | -0.0493
MLSRVVLSAAATAAPSLKNAAFLGPGVLQATRTFHTGQPHLVPVPPLPEYGGKVRYGLIPEEFFQFLYPKTGVTGPYVLGTGLILYALSKEIYVISAETFTALSVLGVMVYGIKKYGPFVADFADKLNEQKLAQLEEAKQASIQHIQNAIDTEKSQQALVQKRHYLFDVQRNNIAMALEVTYRERLYRVYKEVKNRLDYHISVQNMMRRKEQEHMINWVEKHVVQSISTQQEKETIAKCIADLKLLAKKAQAQPVM [ATP5F1] | 0.102 | 52.8 | 53.8 | -0.0719 | -1.2 | 0.116
MLSSTAMYSAPGRDLGMEPHRAAGPLQLRFSPYVFNGGTILAIAGEDFAIVASDTRLSEGFSIHTRDSPKCYKLTDKTVIGCSGFHGDCLTLTKIIEARLKMYKHSNNKAMTTGAIAAMLSTILYSRRFFPYYVYNIIGGLDEEGKGAVYSFDPVGSYQRDSFKAGGSASAMLQPLLDNQVGFKNMQNVEHVPLSLDRAMRLVKDVFISAAERDVYTGDALRICIVTKEGIREETVSLRKD [PSMB1] | -0.00543 | 57 | 60.1 | -1.78 | -1.88 | -0.098
MLVLRSALTRALASRTLAPQMCSSFATGPRQYDGIFYEFRSYYLKPSKMNEFLENFEKNAHLRTAHSELVGYWSVEFGGRMNTVFHIWKYDNFAHRTEVRKALAKDKEWQEQFLIPNLALIDKQESEITYLVPWCKLEKPPKEGVYELATFQMKPGGPALWGDAFKRAVHAHVNLGYTKLVGVFHTEYGALNRVHVLWWNESADSRAAGRHKSHEDPRVVAAVRESVNYLVSQQNMLLIPTSFSPLK [NIPSNAP3A] | -0.107 | 56.2 | 57.7 | -1.76 | -2.47 | -0.224
MLVSGRRRLLTVLLQAQKWPFQPSRDMRLVQFRAPHLVGPHLGLETGNGGGVINLNAFDPTLPKTMTQFLEQGEATLSVARRALAAQLPVLPRSEVTFLAPVTRPDKVVCVGMNYVDHCKEQNVPVPKEPIIFSKFASSIVGPYDEVVLPPQSQEVDWEVELAVVIGKKGKHIKATDAMAHVAGFTVAHDVSARDWQMRRNGKQWLLGKTFDTFCPLGPALVTKDSVADPHNLKICCRVNGEVVQSGNTNQMVFKTEDLIAWVSQFVTFYPGDVILTGTPPGVGVFRKPPVFLKKGDEVQCEIEELGVIINKVV [FAHD2A] | 0.253 | 55.7 | 56.4 | -1.17 | -2.54 | -0.192
MLVVEVANGRSLVWGAEAVQALRERLGVGGRTVGALPRGPRQNSRLGLPLLLMPEEARLLAEIGAVTLVSAPRPDSRHHSLALTSFKRQQEESFQEQSALAAEARETRRQELLEKITEGQAAKKQKLEQASGASSSQEAGSSQAAKEDETSDGQASGEQEEAGPSSSQAGPSNGVAPLPRSALLVQLATARPRPVKARPLDWRVQSKDWPHAGRPAHELRYSIYRDLWERGFFLSAAGKFGGDFLVYPGDPLRFHAHYIAQCWAPEDTIPLQDLVAAGRLGTSVRKTLLLCSPQPDGKVVYTSLQWASLQ [TSEN34] | 0.191 | 49.3 | 49.8 | 1.68 | 2.17 | -0.159
MLWFQGAIPAAIATAKRSGAVFVVFVAGDDEQSTQMAASWEDDKVTEASSNSFVAIKIDTKSEACLQFSQIYPVVCVPSSFFIGDSGIPLEVIAGSVSADELVTRIHKVRQMHLLKSETSVANGSQSESSVSTPSASFEPNNTCENSQSRNAELCEIPPTSDTKSDTATGGESAGHATSSQEPSGCSDQRPAEDLNIRVERLTKKLEERREEKRKEEEQREIKKEIERRKTGKEMLDYKRKQEEELTKRMLEERNREKAEDRAARERIKQQIALDRAERAARFAKTKEEVEAAKAAALLAKQAEMEVKRESYARERSTVARIQFRLPDGSSFTNQFPSDAPLEEARQFAAQTVGNTYGNFSLATMFPRREFTKEDYKKKLLDLELAPSASVVLLPAGRPTASIVHSSSGDIWTLLGTVLYPFLAIWRLISNFLFSNPPPTQTSVRVTSSEPPNPASSSKSEKREPVRKRVLEKRGDDFKKEGKIYRLRTQDDGEDENNTWNGNSTQQM [UBXN4] | -0.0609 | 51.8 | 52.1 | -0.0363 | 0.462 | -0.108
